# From article PMC4451072, “A Linear Epitope in the N-Terminal Domain of CCR5 and Its Interaction with Antibody” (PLoS ONE, 2015)
# “Also recorded” adds a separate entry of the source. Where two headings read alike, the source gives them in different places.
# B1: RoAb13: mouse monoclonal anti-CCR5 antibody from hybridoma line number PZ3733 (Roche Palo Alto); EMBL LN832627 and LN832628 (antibody, V domains shown)
# VH: EVQLQESGGGLVKPGGSLKLSCAASGFTFSTYAMSWVRQTPEKRLEWVASISTGDNTYYTDSVRGRFTISRDNARNILYLQMSSLRSEDTAMYFCTRGRGDRGDLFGYWGQGTLVTVSS
# VL: DIVMSQSPSSLAVSVGEKVTMSCKSSQSLLYRGNQMNYLAWYQQKPGQSPKLLIYWASTRESGVPDRFTGSGSGTEFTLTISSVKAEDLTVYYCQQYYTYPRTFGGGTKLEIK
# B2: RoAb13 Fab fragment: Fab fragment of RoAb13 produced by papain digestion; PDB 4S2S (antibody, V domains shown)
# VH: B1 VH
# VL: B1 VL
# Experiments:
# hCCR5_1–31 [1] = test: Epitope mapping with truncated peptides by competitive ELISA; assay type: binding, human
# Description: (§1) The peptide encoding the N-terminal extracellular domain of human CCR5 ([…]-biotin, hCCR5_1–31) was synthesised by the Peptide Synthesis Laboratory, Cancer ResearchUK. The same peptide without the C-terminal cysteine biotin was synthesised by PeptideSynthetics (Fareham PO15 6DP). An analogue of the peptide with sulphated tyrosines at position 10 and 14 was synthesised as described previously and given as a gift by Prof. Fred Naider (City University of New York). The panel of truncated peptides used for epitope mapping (See Results, Subsection “Defining a linear epitope in the N-terminal domain of CCR5”) was synthesised by Sigma (Pepscreen). The chimeric peptide used for immunisation ([…]) was synthesised by the peptide synthesis facility at the University of Ghent. All peptides were >80% pure by HPLC and mass spectroscopy.
# The pepscreen panel of CCR5 truncated peptides was screened by competitive ELISA. Antibody supernatant (typically diluted 1 in 1000 or 1 in 4000) was added to N-terminal domain peptide coated ELISA plates in the presence or absence of 1 μg/well of one of the competing peptides. The antibody peptide mixture was incubated overnight, washed and then bound antibody measured as described above.
# [2] = test system: untransfected controls (CHO cells); test: Flow cytometry binding of antibodies to untransfected controls; set-up: species or system Chinese hamster; conditions: normalized to % maximum binding for each antibody
# Description: (§2) Chinese hamster ovary cells were transfected by electroporation with vectors expressing human or mouse CCR5 in an expression vector containing a neomycin resistance gene (Genecopoeia, #EX-Z0659-M02 and #EX-Mm01826-M02 respectively). G418 resistant cells were cloned by limit dilution and receptor expressing cells were identified by flow cytometry using RoAb13 anti-CCR5 and Rabbit anti-mouse FITC for human CCR5, and PE anti-Mouse CD195 (CCR5) (clone HM-CCR5, Insight Biotechnology) for mouse CCR5.
# (§3) CHO cell transfectants (5 × 10^4) were incubated in 10% goat serum (Sigma) and 0.1% sodium azide for 30 min at 4°C. Purified antibodies or mouse sera at various dilutions were added, and incubated for 2–3 h at 4°C. Cells were washed and bound antibody detected using […] FITC or APC conjugates (R&D Systems). The number of bound antibody molecules was quantified in some experiments using Quikfit calibration beads containing known numbers of bound mouse IgG molecules as per manufacturers instructions (DAKO, #K0078).
# [3] = test system: hCCR5_1–31 N-terminal domain peptide; test: Affinity of RoAb13 for hCCR5_1–31 peptide by competitive (two-stage) ELISA; assay type: binding, human; conditions: abstract value
# Description: as §1
# (§4) 96 well ELISA plates (Nunc) were coated with peptide conjugates (10 μg/ml unless otherwise stated) in coating buffer (0.1 M sodium bicarbonate, pH 8.5), overnight at 4°C. All wells were washed (washing buffer PBS 0.1% Tween-20) and blocked by addition of 2% low fat milk (Tesco) in PBS for at least 1 h at room temperature. […] Unconjugated avidin was used as control coating. […] Bound antibody was detected using alkaline phosphatase coupled rabbit anti-mouse IgG or IgGFab (Sigma) antibody (1:2000 dilution) and substrate (PNPP FAST, Sigma). […]
# [4] = test system: CHO-CCR5 transfected cells; conditions: ref [19]; cited from earlier work
# Description: The clear cut inhibitory effects of the antibody even ...
# [5] = test system: human peripheral blood leukocytes; test: Transwell migration assay, peripheral blood leukocytes; assay type: cell-based; conditions: responses to individual chemokines or inflammatory macrophage conditioned media
# Experimental: (§5) Peripheral blood mononuclear cells and monocyte derived macrophages were prepared from peripheral blood as previously described. The study was approved by the joint University College London / University College London Hospitals NHS Trust Human Research Ethics Committee and written informed consent was obtained from all participants. […] Conditioned media from these cultures were then centrifuged at 10,000g for 5 minutes and stored at -80°C. Polycarbonate transwell inserts (Corning No. 3421, with […] and 6.5 mm diameter) were placed over 500 μL conditioned media or control media or media containing purified chemokines in 24-well plates. […] of freshly isolated PBMC (5x10^6 cells /mL) were loaded into the upper chamber of the transwell, and incubated for 3 hours at 37°C. Transwells were then lifted out of the lower chamber and the contents of the upper chamber were carefully aspirated. Each transwell filter was subsequently tilted to rinse the under surface twice with 200 μL 0.25% Trypsin-EDTA (Gibco) that was allowed to drain into the well (lower chamber). […] The lower chamber cell suspension was collected and fixed with 1% paraformaldehyde in phosphate buffered saline (PBS). […] 10 000 beads were counted to standardised cell count quantitation in each sample and transmigration of cells in the lower chamber was expressed as the proportion of the input.
# mouse CCR5 = test: Flow cytometry binding of antibodies to CHO cells transfected with mouse CCR5; conditions: normalized to % maximum binding for each antibody
# Description: as §2, §3
# HIV = conditions: cited from earlier work
# monocytes = test: Transwell migration assay, monocytes; assay type: cell-based, human; conditions: for migration of monocytes to macrophage conditioned medium: 3 h at 37°C, conditioned medium from resting and activated (LPS) macrophages
# Experimental: Peripheral blood mononuclear cells and monocyte derived macrophages were prepared from peripheral blood as previously described. The study was approved by the joint University College London / University College London Hospitals NHS Trust Human Research Ethics Committee and written informed consent was obtained from all participants. […] Conditioned media from these cultures were then centrifuged at 10,000g for 5 minutes and stored at -80°C. Polycarbonate transwell inserts (Corning No. 3421, with […] and 6.5 mm diameter) were placed over 500 μL conditioned media or control media or media containing purified chemokines in 24-well plates. […] of freshly isolated PBMC (5x10^6 cells /mL) were loaded into the upper chamber of the transwell, and incubated for 3 hours at 37°C. Transwells were then lifted out of the lower chamber and the contents of the upper chamber were carefully aspirated. Each transwell filter was subsequently tilted to rinse the under surface twice with 200 μL 0.25% Trypsin-EDTA (Gibco) that was allowed to drain into the well (lower chamber). […] The lower chamber cell suspension was collected and fixed with 1% paraformaldehyde in phosphate buffered saline (PBS). […] A FACScalibur flow cytometer (Becton Dickinson) was used with FlowJo (version 9.4.3) analysis software. 10 000 beads were counted to standardised cell count quantitation in each sample and transmigration of cells in the lower chamber was expressed as the proportion of the input.
# [6] = test system: human CCR5 (CHO cell transfectants); test: Flow cytometry binding of antibodies to CCR5-transfected CHO cells; conditions: indirect immunofluorescence
# Description: as §2, §3
# [7] = test system: cell surface CCR5 (expressed on CCR5 transfectants); test: Affinity of RoAb13 for cell surface CCR5 by flow cytometry (Scatchard plot); assay type: binding, human; conditions: abstract value, CCR5-transfected cells
# Description: as §2, §3
# [8] = test system: CCR5 on human peripheral blood subpopulations; test: Expression of CCR5 on human peripheral blood subsets as detected by RoAb13; assay type: binding; conditions: S2 Fig
# Description: Peripheral blood subpopulations were stained using purified RoAb13 Fab fragment directly conjugated with […] as per manufacturer’s instructions.
# [9] = test system: hCCR5_1–31 analogue with sulphated tyrosines at position 10 and 14; test: ELISA binding of RoAb13 to sulphated N-terminal CCR5 peptide; set-up: species or system human
# Description: as §1, §4
# hCCR5_1–31 [10] = test: ELISA binding of antibodies to the N-terminal CCR5 peptide; set-up: species or system human; conditions: peptide coupled to avidin, OD 405 nm
# Description: as §1, §4
# lymphocytes = test: Transwell migration assay, lymphocytes; assay type: cell-based, human; conditions: 3 h, conditioned medium from resting and activated macrophages
# Experimental: as §5
molecule,measurement,setting,value
"peptide spanning the whole of 5–25: peptide of the pepscreen panel spanning CCR5 residues 5–25 (VSSPIYDINYYTSEPCQKINV; UniProt P51681 5-25, looked up, fragment)",inhibition of R&D1801 binding to hCCR5_1–31,"hCCR5_1–31 [1]; competing peptide 1 μg/well, overnight, competitive ELISA",completely blocked
B1,binding to untransfected controls,[2],less than 5 % of maximum binding
same,affinity for peptide,[3],1.2e+07 M⁻¹
same,core epitope recognised,"hCCR5_1–31 [1]; competitive ELISA with truncated peptides, defined by inhibition of binding by more than 50%",between aa8 (proline) and 13(asparagine)
same,"block of binding of CCL3, 4 and CCL5",[4],"only partial ability to block binding of CCL3, 4 and CCL5"
same,block of chemokine induced calcium flux,[4],only partial ability
same,chemokine or conditioned media induced leukocyte migration,[5],effectively blocked chemokine induced migration of human peripheral blood leukocytes
same,binding to CHO cells transfected with mouse CCR5,mouse CCR5,less than 5 % of maximum binding
same,HIV blocking,HIV; previously shown,block HIV infection; also recorded: potent HIV blocking activity
same,inhibition of HIV infection,"HIV; ref [19],[32]",potent inhibitor of HIV infection
same,inhibition of HIV infection,"HIV; single round and spreading infection assays, ref [19]","inhibit HIV infection, in both single round and spreading infection assays"
same,migration in response to CCR5 binding chemokines,monocytes,blocks migration of monocytes in response to CCR5 binding chemokines; also recorded: ability to block chemokine induced monocyte migration; also recorded: inhibits migration induced by chemokines which bind CCR5
same,migration of monocytes to macrophage conditioned medium,monocytes,blocks migration of monocytes; also recorded: inhibits monocyte chemotaxis
same,migration in response to CCL2,"monocytes; CCL2, S3 Fig",blocked migration
same,migration in response to CCL3,"monocytes; CCL3, S3 Fig",blocked migration
same,migration in response to CCL4,"monocytes; CCL4, S3 Fig",blocked migration
same,migration in response to CXCL12,"monocytes; CXCL12 (acts via CXCR4), S3 Fig",failed to block migration
same,binding to CCR5-expressing transfectants,[6],bound strongly to CCR5-expressing transfectants; also recorded: quite heterogenous
same,affinity for cells,[7],6e+08 M⁻¹
same,"detection of CCR5 on CD4, CD8 and NK cells",[8],"detected CCR5 on a subpopulation of human peripheral CD4, CD8 and NK cells"
same,detection of CCR5 on monocytes and B cells,[8],low levels of CCR5 expression
same,binding to sulphated vs non-sulphated peptide,[9]; peptide sulphated at tyrosines 10 and 14,bound more strongly (heteroclytic binding) to sulphated than non-sulphated forms of the peptide; also recorded: binding to peptide was significantly enhanced by the sulphation of target tyrosines
same,binding to sulphated vs non-sulphated peptide,"[9]; peptide sulphated at tyrosines 10 and 14, listed as RoAb 13",binding to the peptide is enhanced by sulfation of tyrosines at positions 10 and 14
same,recognition of the synthetic N-terminal peptide,hCCR5_1–31 [10],recognised the synthetic peptide; also recorded: bound to both linear peptide and native forms of the epitope
B2,migration of lymphocytes to macrophage conditioned medium,lymphocytes,not lymphocytes
same,migration of monocytes to macrophage conditioned medium,monocytes,"significant difference from control (T test, p<0.05)"
same,migration of monocytes to macrophage conditioned medium,monocytes; listed as Fab fragment of RoAb13,significantly inhibited the migration of monocytes
